Data from the supplement of paper PMC5998384.

Key:
HeLa Kyoto [1] = test: solubility in G1/S (NP-40 vs SDS abundance) (log2 ratio); higher = more soluble; details: cell cycle stage: G1/S
HeLa Kyoto [2] = test: melting temperature (median over replicates), in situ; higher = more thermally stable
HeLa Kyoto [3] = test: solubility change mitosis vs G1/S (difference of NP-40 vs SDS log2 ratios) (log2 ratio difference); higher = more soluble in mitosis
HeLa Kyoto [4] = test: thermal stability score vs G1/S (z-score of summed log2 fold changes over temperatures); higher = more thermally stable than in G1/S
[5] = cell cycle stage: early G1 (4.5 h after nocodazole release)
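Wherever melting temperature (median over replicates), in situ is given: HeLa Kyoto cells synchronized by double thymidine or nocodazole block, proteins quantified by TMT10plex mass spectrometry, three independent biological replicates.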
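Wherever solubility change mitosis vs G1/S (difference of NP-40 vs SDS log2 ratios) is given: synchronized HeLa Kyoto cells (double thymidine block for G1/S, nocodazole release for mitosis), protein amounts in NP-40 versus SDS lysates quantified by mass spectrometry, three biological replicates.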
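Wherever solubility in G1/S (NP-40 vs SDS abundance) is given: HeLa Kyoto cells arrested at G1/S by double thymidine block, proteins quantified by TMT10plex mass spectrometry in mild NP-40 versus SDS extracts, three biological replicates.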
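Wherever thermal stability score vs G1/S (z-score of summed log2 fold changes over temperatures) is given: synchronized HeLa Kyoto cells, proteins quantified by TMT10plex mass spectrometry, three biological replicates, mitosis taken 0.5 h after nocodazole release, G1/S directly after double thymidine block.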

Row | Sequence | solubility in G1/S (log2) (HeLa Kyoto [1]) | melting temperature (HeLa Kyoto [2]; cell cycle stage: G1/S) [°C] | melting temperature (HeLa Kyoto [2]; cell cycle stage: mitosis) [°C] | solubility change mitosis (log2) (HeLa Kyoto [3]) | thermal stability score (HeLa Kyoto [4]; [5]) | thermal stability score (HeLa Kyoto [4]; cell cycle stage: mitosis)
1 | MFGAGDEDDTDFLSPSGGARLASLFGLDQAAAGHGNEFFQYTAPKQPKKGQGTAATGNQATPKTAPATMSTPTILVATAVHAYRYTNGQYVKQGKFGAAVLGNHTAREYRILLYISQQQPVTVARIHVNFELMVRPNNYSTFYDDQRQNWSIMFESEKAAVEFNKQVCIAKCNSTSSLDAVLSQDLIVADGPAVEVGDSLEVAYTGWLFQNHVLGQVFDSTANKDKLLRLKLGSGKVIKGWEDGMLGMKKGGKRLLIVPPACAVGSEGVIGWTQATDSILVFEVEVRRVKFARDSGSDGHSVSSRDSAAPSPIPGADNLSADPVVSPPTSIPFKSGEPALRTKSNSLSEQLAINTSPDAVKAKLISRMAKMGQPMLPILPPQLDSNDSEIEDVNTLQGGGQPVVTPSVQPSLHPAHPALPQMTSQAPQPSVTGLQAPSAALMQVSSLDSHSAVSGNAQSFQPYAGMQAYAYPQASAVTSQLQPVRPLYPAPLSQPPHFQGSGDMASFLMTEARQHNTEIRMAVSKVADKMDHLMTKVEELQKHSAGNSMLIPSMSVTMETSMIMSNIQRIIQENERLKQEILEKSNRIEEQNDKISELIERNQRYVEQSNLMMEKRNNSLQTATENTQARVLHAEQEKAKVTEELAAATAQVSHLQLKMTAHQKKETELQMQLTESLKETDLLRGQLTKVQAKLSELQETSEQAQSKFKSEKQNRKQLELKVTSLEEELTDLRVEKESLEKNLSERKKKSAQERSQAEEEIDEIRKSYQEELDKLRQLLKKTRVSTDQAAAEQLSLVQAELQTQWEAKCEHLLASAKDEHLQQYQEVCAQRDAYQQKLVQLQEKCLALQAQITALTKQNEQHIKELEKNKSQMSGVEAAASDPSEKVKKIMNQVFQSLRREFELEESYNGRTILGTIMNTIKMVTLQLLNQQEQEKEESSSEEEEEKAEERPRRPSQEQSASASSGQPQAPLNRERPESPMVPSEQVVEEAVPLPPQALTTSQDGHRRKGDSEAEALSEIKDGSLPPELSCIPSHRVLGPPTSIPPEPLGPVSMDSECEESLAASPMAAKPDNPSGKVCVREVAPDGPLQESSTRLSLTSDPEEGDPLALGPESPGEPQPPQLKKDDVTSSTGPHKELSSTEAGSTVAGAALRPSHHSQRSSLSGDEEDELFKGATLKALRPKAQPEEEDEDEVSMKGRPPPTPLFGDDDDDDDIDWLG [FKBP15] | 0.0656 | 49.6 | 50 | -0.0387 | -0.146 | 1.12
2 | MFHLRTCAAKLRPLTASQTVKTFSQNRPAAARTFQQIRCYSAPVAAEPFLSGTSSNYVEEMYCAWLENPKSVHKSWDIFFRNTNAGAPPGTAYQSPLPLSRGSLAAVAHAQSLVEAQPNVDKLVEDHLAVQSLIRAYQIRGHHVAQLDPLGILDADLDSSVPADIISSTDKLGFYGLDESDLDKVFHLPTTTFIGGQESALPLREIIRRLEMAYCQHIGVEFMFINDLEQCQWIRQKFETPGIMQFTNEEKRTLLARLVRSTRFEEFLQRKWSSEKRFGLEGCEVLIPALKTIIDKSSENGVDYVIMGMPHRGRLNVLANVIRKELEQIFCQFDSKLEAADEGSGDVKYHLGMYHRRINRVTDRNITLSLVANPSHLEAADPVVMGKTKAEQFYCGDTEGKKVMSILLHGDAAFAGQGIVYETFHLSDLPSYTTHGTVHVVVNNQIGFTTDPRMARSSPYPTDVARVVNAPIFHVNSDDPEAVMYVCKVAAEWRSTFHKDVVVDLVCYRRNGHNEMDEPMFTQPLMYKQIRKQKPVLQKYAELLVSQGVVNQPEYEEEISKYDKICEEAFARSKDEKILHIKHWLDSPWPGFFTLDGQPRSMSCPSTGLTEDILTHIGNVASSVPVENFTIHGGLSRILKTRGEMVKNRTVDWALAEYMAFGSLLKEGIHIRLSGQDVERGTFSHRHHVLHDQNVDKRTCIPMNHLWPNQAPYTVCNSSLSEYGVLGFELGFAMASPNALVLWEAQFGDFHNTAQCIIDQFICPGQAKWVRQNGIVLLLPHGMEGMGPEHSSARPERFLQMCNDDPDVLPDLKEANFDINQLYDCNWVVVNCSTPGNFFHVLRRQILLPFRKPLIIFTPKSLLRHPEARSSFDEMLPGTHFQRVIPEDGPAAQNPENVKRLLFCTGKVYYDLTRERKARDMVGQVAITRIEQLSPFPFDLLLKEVQKYPNAELAWCQEEHKNQGYYDYVKPRLRTTISRAKPVWYAGRDPAAAPATGNKKTHLTELQRLLDTAFDLDVFKNFS [OGDH] | 0.0621 | 52 | 51.7 | -0.178 | -0.752 | -1.63
3 | MFIKGRAPRAPPRERRRATRGGLRQVVAPPRALGSTSRPHFRRASVCRRRCRKSGGLLAASRKMAAAAVNGAAGFSSSGPAATSGAVLQAATGMYEQLKGEWNRKSPNLSKCGEELGRLKLVLLELNFLPTTGTKLTKQQLILARDILEIGAQWSILRKDIPSFERYMAQLKCYYFDYKEQLPESAYMHQLLGLNLLFLLSQNRVAEFHTELERLPAKDIQTNVYIKHPVSLEQYLMEGSYNKVFLAKGNIPAESYTFFIDILLDTIRDEIAGCIEKAYEKILFTEATRILFFNTPKKMTDYAKKRGWVLGPNNYYSFASQQQKPEDTTIPSTELAKQVIEYARQLEMIV [PSMD8] | 0.278 | 53.4 | 54.5 | 0.0108 | -1.02 | -0.0502
4 | MFKVIQRSVGPASLSLLTFKVYAAPKKDSPPKNSVKVDELSLYSVPEGQSKYVEEARSQLEESISQLRHYCEPYTTWCQETYSQTKPKMQSLVQWGLDSYDYLQNAPPGFFPRLGVIGFAGLIGLLLARGSKIKKLVYPPGFMGLAASLYYPQQAIVFAQVSGERLYDWGLRGYIVIEDLWKENFQKPGNVKNSPGTK [APOO] | 0.444 | 54.8 | 56 | 0.185 | -1.86 | -2.5
5 | MFLPHMNHLTLEQTFFSQVLPKTVKLFDDMMYELTSQARGLSSQNLEIQTTLRNILQTMVQLLGALTGCVQHICATQESIILENIQSLPSSVLHIIKSTFVHCKNSESVYSGCLHLVSDLLQALFKEAYSLQKQLMELLDMVCMDPLVDDNDDILNMVIVIHSLLDICSVISSMDHAFHANTWKFIIKQSLKHQSIIKSQLKHKDIITSLCEDILFSFHSCLQLAEQMTQSDAQDNADYRLFQKTLKLCRFFANSLLHYAKEFLPFLSDSCCTLHQLYLQIHSKFPPSLYATRISKAHQEEIAGAFLVTLDPLISQLLTFQPFMQVVLDSKLDLPCELQFPQCLLLVVVMDKLPSQPKEVQTLWCTDSQVSETTTRISLLKAVFYSFEQCSGELSLPVHLQGLKSKGKAEVAVTLYQHVCVHLCTFITSFHPSLFAELDAALLNAVLSANMITSLLAMDAWCFLARYGTAELCAHHVTIVAHLIKSCPGECYQLINLSILLKRLFFFMAPPHQLEFIQKFSPKEAENLPLWQHISFQALPPELREQTVHEVTTVGTAECRKWLSRSRTLGELESLNTVLSALLAVCNSAGEALDTGKQTAIIEVVSQLWAFLNIKQVADQPYVQQTFSLLLPLLGFFIQTLDPKLILQAVTLQTSLLKLELPDYVRLAMLDFVSSLGKLFIPEAIQDRILPNLSCMFALLLADRSWLLEQHTLEAFTQFAEGTNHEEIVPQCLSSEETKNKVVSFLEKTGFVDETEAAKVERVKQEKGIFWEPFANVTVEEAKRSSLQPYAKRARQEFPWEEEYRSALHTIAGALEATESLLQKGPAPAWLSMEMEALQERMDKLKRYIHTLG [C1ORF112] | -0.208 | 47.9 | 48.9 | -0.0761 | 0.547 | 1.23
6 | MFLTRSEYDRGVNTFSPEGRLFQVEYAIEAIKLGSTAIGIQTSEGVCLAVEKRITSPLMEPSSIEKIVEIDAHIGCAMSGLIADAKTLIDKARVETQNHWFTYNETMTVESVTQAVSNLALQFGEEDADPGAMSRPFGVALLFGGVDEKGPQLFHMDPSGTFVQCDARAIGSASEGAQSSLQEVYHKSMTLKEAIKSSLIILKQVMEEKLNATNIELATVQPGQNFHMFTKEELEEVIKDI [PSMA5] | 0.313 | 55.4 | 53.9 | -0.0172 | 1.94 | 2.76
7 | MFLVNSFLKGGGGGGGGGGGLGGGLGNVLGGLISGAGGGGGGGGGGGGGGGGGGGGTAMRILGGVISAISEAAAQYNPEPPPPRTHYSNIEANESEEVRQFRRLFAQLAGDDMEVSATELMNILNKVVTRHPDLKTDGFGIDTCRSMVAVMDSDTTGKLGFEEFKYLWNNIKRWQAIYKQFDTDRSGTICSSELPGAFEAAGFHLNEHLYNMIIRRYSDESGNMDFDNFISCLVRLDAMFRAFKSLDKDGTGQIQVNIQEWLQLTMYS [CAPNS1] | 0.395 | 55.4 | 55 | -0.0652 | 1.02 | 1.65
8 | MFRGLSSWLGLQQPVAGGGQPNGDAPPEQPSETVAESAEEELQQAGDQELLHQAKDFGNYLFNFASAATKKITESVAETAQTIKKSVEEGKIDGIIDKTIIGDFQKEQKKFVEEQHTKKSEAAVPPWVDTNDEETIQQQILALSADKRNFLRDPPAGVQFNFDFDQMYPVALVMLQEDELLSKMRFALVPKLVKEEVFWRNYFYRVSLIKQSAQLTALAAQQQAAGKEEKSNGREQDLPLAEAVRPKTPPVVIKSQLKTQEDEEEISTSPGVSEFVSDAFDACNLNQEDLRKEMEQLVLDKKQEETAVLEEDSADWEKELQQELQEYEVVTESEKRDENWDKEIEKMLQEEN [SYAP1] | 0.391 | 53.2 | 53.5 | 0.264 | -0.579 | -1.49
9 | MFSKFTSILQHAVEALAPSLPLQEDFVYHWKAITHYYIETSDDKAPVTDTNIPSHLEQMLDILVQEENERESGETGPCMEYLLHHKILETLYTLGKADCPPGMKQQVLVFYTKLLGRIRQPLLPHINVHRPVQKLIRLCGEVLATPTENEEIQFLCIVCAKLKQDPYLVNFFLENKMKSLASKGVPNVISEDTLKGQDSLSTDTGQSRQPEELSGATGMEQTELEDEPPHQMDHLSTSLDNLSVTSLPEASVVCPNQDYNLVNSLLNLTRSPDGRIAVKACEGLMLLVSLPEPAAAKCLTQSTCLCELLTDRLASLYKALPQSVDPLDIETVEAINWGLDSYSHKEDASAFPGKRALISFLSWFDYCDQLIKEAQKTAAVALAKAVHERFFIGVMEPQLMQTSEMGILTSTALLHRIVRQVTSDVLLQEMVFFILGEQREPETLAEISRHPLRHRLIEHCDHISDEISIMTLRMFEHLLQKPNEHILYNLVLRNLEERNYTEYKPLCPEDKDVVENGLIAGAVDLEEDPLFTDISPENTLPNQEWLSSSPPATPDHPKNDGKTEVHKIVNSFLCLVPDDAKSSYHVEGTGYDTYLRDAHRQFRDYCAICLRWEWPGSPKALEKCNLEAAFFEGHFLKVLFDRMGRILDQPYDVNLQVTSVLSRLSLFPHPHIHEYLLDPYVNLAPGCRSLFSVIVRVVGDLMLRIQRIQDFTPKLLLVRKRLLGLEPEGPIIDHITLLEGVIVLEEFCKELAAIAFVKYHASSTP [FAM160B1] | 0.0585 | 52.1 | 51.1 | -0.212 | -0.501 | -0.078
10 | MFSRAGVAGLSAWTLQPQWIQVRNMATLKDITRRLKSIKNIQKITKSMKMVAAAKYARAERELKPARIYGLGSLALYEKADIKGPEDKKKHLLIGVSSDRGLCGAIHSSIAKQMKSEVATLTAAGKEVMLVGIGDKIRGILYRTHSDQFLVAFKEVGRKPPTFGDASVIALELLNSGYEFDEGSIIFNKFRSVISYKTEEKPIFSLNTVASADSMSIYDDIDADVLQNYQEYNLANIIYYSLKESTTSEQSARMTAMDNASKNASEMIDKLTLTFNRTRQAVITKELIEIISGAAALD [ATP5C1] | 0.283 | 58 | 56.5 | -0.0222 | -0.727 | -0.47
11 | MFVARSIAADHKDLIHDVSFDFHGRRMATCSSDQSVKVWDKSESGDWHCTASWKTHSGSVWRVTWAHPEFGQVLASCSFDRTAAVWEEIVGESNDKLRGQSHWVKRTTLVDSRTSVTDVKFAPKHMGLMLATCSADGIVRIYEAPDVMNLSQWSLQHEISCKLSCSCISWNPSSSRAHSPMIAVGSDDSSPNAMAKVQIFEYNENTRKYAKAETLMTVTDPVHDIAFAPNLGRSFHILAIATKDVRIFTLKPVRKELTSSGGPTKFEIHIVAQFDNHNSQVWRVSWNITGTVLASSGDDGCVRLWKANYMDNWKCTGILKGNGSPVNGSSQQGTSNPSLGSTIPSLQNSLNGSSAGRKHS [SEH1L] | -0.79 | 54.8 | 51.6 | 0.295 | -3.19 | -4.18
